Assay results published in article PMC7232166, “Expression of Pleurotus ostreatus Laccase Gene in Pichia pastoris and Its Degradation of Corn Stover Lignin” (Microorganisms, 2020).

Experiments:
Assay in all cases: purified protein
[1] = substrate: COc1ccccc1O; conditions: citrate-phosphate buffer, optimum pH 3.5, 25 °C stated for activity assay
[2] = substrate: COc1cccc(OC)c1O; type: biochemical, Pleurotus ostreatus; conditions: citrate-phosphate buffer, optimum pH 3.0, 25 °C stated for activity assay
[3] = substrate: CCn1c(=NN=c2sc3cc(S(=O)(=O)O)ccc3n2CC)sc2cc(S(=O)(=O)O)ccc21; type: biochemical, Pleurotus ostreatus; conditions: citrate-phosphate buffer, optimum pH 3.0, 25 °C stated for activity assay

B1: Recombinant laccase X33-Lac-2 (Pleurotus ostreatus) (protein)
chain: AIGPAGNMYIVNEDVSPDGFARSAVVARSVPATDPTPATASIPGVLVQGNKGDNFQLNVVNQLSDTTMLKTTSIHWHGFFQAGSSWADGPAFVTQCPVASGDSFLYNFNVPDQAGTFWYHSHLSTQYCDGLRGPFVVYDPSDPHLSLYDIDNADTVITLEDWYHIVAPQNAAIPTPDSTLINGKGRYAGGPTSPLAIINVESNKRYRFRLVSMSCDPNFTFSIDGHSLLVIEADAVNIVPITVDSIQIFAGQRYSFVLTANQAVDNYWIRANPNLGSTGFVGGINSAILRYAGATEDDPTTTSSTSTPLLETNLVPLENPGAPGPPVPGGADININLAMAFDFTTFELTINGVPFLPPTAPVLLQILSGASTAASLLPSGSIYELEANKVVEISMPALAVGGPHPFHLHGHTFDVIRSAGSTTYNFDTPARRDVVNTGTGANDNVTIRFVTDNPGPWFLHCHIDWHLEIGLAVVFAEDVTSISAPPAAWDDLCPIYNALSDNDKGGIVPS
notes: about 57 kDa on SDS-PAGE
With B1 the Km [1] was 302.4 ± 26.0 µM, the Km [2] was 79.2 ± 18.3 µM and the kcat [2] was 19.8 ± 1.1 s⁻¹. It also gave a kcat/Km [2] of 250000 M⁻¹ s⁻¹, a Km [3] of 13.6 ± 2.9 µM and a kcat [3] of 311 ± 21 s⁻¹. For the same protein, the kcat/Km [3] was 2.28e+07 M⁻¹ s⁻¹.
